# Measurements reported in publication PMC9001735, “Insights into the inhibition of type I-F CRISPR-Cas system by a multifunctional anti-CRISPR protein AcrIF24”.
# Several values for one entry are separate records, joined by “and”; a condition that tells them apart may be missing. Equal entries are not always repeated.
# Key:
# [1] = molecular target: crRNA-guided surveillance complex (Csy complex) of the type I-F CRISPR-Cas system from P. aeruginosa (P. aeruginosa) (UniProt Q02ML9); assay: SEC-MALS; mix of AcrIF24 and Csy complex (7.5 mg/mL), AcrIF24:Csy 1:1; Superdex-200 10/300 GL, 20 mM HEPES pH 7.5, 200 mM NaCl
# [2] = molecular target: crRNA-guided surveillance complex (Csy complex) of the type I-F CRISPR-Cas system from P. aeruginosa (P. aeruginosa) (UniProt Q02ML9); assay: SEC-MALS; mix of AcrIF24 and Csy complex (7.5 mg/mL), AcrIF24:Csy 5:1; Superdex-200 10/300 GL, 20 mM HEPES pH 7.5, 200 mM NaCl
# [3] = molecular target: crRNA-guided surveillance complex (Csy complex) of the type I-F CRISPR-Cas system from P. aeruginosa (P. aeruginosa) (UniProt Q02ML9); assay: SPR; Biacore 8K, 25 °C; Csy complex immobilised on a CM5 chip (~10,000 RU), AcrIF24 injected; 20 mM HEPES pH 7.5, NaCl, 0.05% Tween-20; 1:1 Langmuir model
# [4] = molecular target: crRNA-guided surveillance complex (Csy complex) of the type I-F CRISPR-Cas system from P. aeruginosa (P. aeruginosa) (UniProt Q02ML9); assay: SEC-MALS; mix of AcrIF24 and Csy complex (7.5 mg/mL), AcrIF24:Csy 1:5; Superdex-200 10/300 GL, 20 mM HEPES pH 7.5, 200 mM NaCl
# [5] = molecular target: AcrIF24 (full-length, wild type) (Pseudomonas aeruginosa prophage); assay: SEC-MALS; Superdex-200 10/300 GL, 20 mM HEPES pH 7.5, 200 mM NaCl; AcrIF24 1.5 mg/mL, AcrIF24ΔMD 15 mg/mL; gel filtration coupled with static light scattering
# [6] = molecular target: crRNA-guided surveillance complex (Csy complex) of the type I-F CRISPR-Cas system from P. aeruginosa (P. aeruginosa) (UniProt Q02ML9); assay: SEC-MALS; co-expressed and purified Csy-AcrIF24 complex, 1.5 mg/mL; Superdex-200 10/300 GL, 20 mM HEPES pH 7.5, 200 mM NaCl
# [7] = molecular target: AcrIF24 Δmiddle domain (Pseudomonas aeruginosa prophage); assay: SEC-MALS; Superdex-200 10/300 GL, 20 mM HEPES pH 7.5, 200 mM NaCl; AcrIF24 1.5 mg/mL, AcrIF24ΔMD 15 mg/mL; gel filtration coupled with static light scattering
# [8] = system: AcrIF24 (Pseudomonas aeruginosa prophage); assay: EMSA; details: EMSA: 20 mM HEPES pH 7.5, 150 mM NaCl, 5% glycerol, 37 C 30 min, 1 uM DNA (20 nM for Kd), MST: 20 mM HEPES pH 7.5, 150 mM KCl
# [9] = molecular target: Csy complex;AcrIF24 (Pseudomonas aeruginosa;Pseudomonas aeruginosa prophage) (UniProt Q02ML9+Q02MM0+Q02MM1+Q02MM2); assay: MST; details: Kd only in figure, EMSA: 20 mM HEPES pH 7.5, 150 mM NaCl, 5% glycerol, 37 C 30 min, 1 uM DNA (20 nM for Kd), MST: 20 mM HEPES pH 7.5, 150 mM KCl
# [10] = molecular target: Csy complex;AcrIF9 (Pseudomonas aeruginosa;) (UniProt Q02ML9+Q02MM0+Q02MM1+Q02MM2); assay: MST; details: Kd only in figure, EMSA: 20 mM HEPES pH 7.5, 150 mM NaCl, 5% glycerol, 37 C 30 min, 1 uM DNA (20 nM for Kd), MST: 20 mM HEPES pH 7.5, 150 mM KCl
# [11] = system: AcrIF24ΔMD (Pseudomonas aeruginosa prophage); assay: EMSA; details: EMSA: 20 mM HEPES pH 7.5, 150 mM NaCl, 5% glycerol, 37 C 30 min, 1 uM DNA (20 nM for Kd), MST: 20 mM HEPES pH 7.5, 150 mM KCl
# Csy complex = molecular target: T1, Csy complex (Pseudomonas aeruginosa, UniProt Q02ML9;Q02MM0;Q02MM1;Q02MM2 1-434;1-327;1-342;1-187); assay: EMSA; EMSA: 20 mM HEPES pH 7.5, 150 mM NaCl, 5% glycerol, 37 C 30 min, 1 uM DNA (20 nM for Kd); MST: 20 mM HEPES pH 7.5, 150 mM KCl, 5% glycerol; details: protein: recombinant, copies: 1;1;6;1, blunt
# T1 sequence 1: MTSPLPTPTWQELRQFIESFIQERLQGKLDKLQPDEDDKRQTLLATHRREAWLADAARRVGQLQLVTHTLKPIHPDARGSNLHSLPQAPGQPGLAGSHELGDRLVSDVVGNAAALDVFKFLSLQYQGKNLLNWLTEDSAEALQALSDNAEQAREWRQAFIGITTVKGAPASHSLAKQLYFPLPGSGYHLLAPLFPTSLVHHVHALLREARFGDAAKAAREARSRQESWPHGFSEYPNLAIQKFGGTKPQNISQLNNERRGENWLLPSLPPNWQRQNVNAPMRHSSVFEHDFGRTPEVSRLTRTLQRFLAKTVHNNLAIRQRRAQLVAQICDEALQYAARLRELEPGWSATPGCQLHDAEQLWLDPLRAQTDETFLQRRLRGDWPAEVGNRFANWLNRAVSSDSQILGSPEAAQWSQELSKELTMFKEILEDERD
# T1 sequence 2: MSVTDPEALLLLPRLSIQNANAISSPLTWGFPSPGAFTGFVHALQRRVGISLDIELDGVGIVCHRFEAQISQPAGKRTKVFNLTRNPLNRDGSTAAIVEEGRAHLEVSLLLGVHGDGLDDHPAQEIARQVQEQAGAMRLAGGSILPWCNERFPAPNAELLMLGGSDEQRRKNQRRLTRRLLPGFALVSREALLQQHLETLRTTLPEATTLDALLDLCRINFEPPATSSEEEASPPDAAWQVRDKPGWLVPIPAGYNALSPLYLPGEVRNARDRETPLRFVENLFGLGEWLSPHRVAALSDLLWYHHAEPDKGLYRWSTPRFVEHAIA
# T1 sequence 3: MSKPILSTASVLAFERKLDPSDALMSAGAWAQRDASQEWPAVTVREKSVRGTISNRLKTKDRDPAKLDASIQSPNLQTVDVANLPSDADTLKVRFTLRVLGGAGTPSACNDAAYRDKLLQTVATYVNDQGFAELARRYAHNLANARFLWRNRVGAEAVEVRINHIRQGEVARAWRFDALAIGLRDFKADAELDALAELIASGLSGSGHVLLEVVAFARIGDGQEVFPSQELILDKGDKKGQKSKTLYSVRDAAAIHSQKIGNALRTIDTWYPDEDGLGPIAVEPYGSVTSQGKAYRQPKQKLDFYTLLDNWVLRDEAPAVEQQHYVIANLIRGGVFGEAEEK
# T1 sequence 4: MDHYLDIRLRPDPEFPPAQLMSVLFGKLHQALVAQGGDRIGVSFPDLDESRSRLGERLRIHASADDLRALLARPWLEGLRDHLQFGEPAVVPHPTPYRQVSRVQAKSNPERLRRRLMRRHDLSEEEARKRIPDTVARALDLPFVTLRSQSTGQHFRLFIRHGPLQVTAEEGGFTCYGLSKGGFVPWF
molecule,measurement,setting,value
"AcrIF24 (full-length, wild type) (natural protein)",stoichiometry N (AcrIF24 per Csy complex),[1],1
same,stoichiometry N (AcrIF24 per Csy complex),[2],2 and 1
same,Kd,[3],4.21 nM
same,koff,[3],0.00118 s⁻¹
same,kon,[3],281000 M⁻¹ s⁻¹
same,stoichiometry N (AcrIF24 per Csy complex),[4],1
same,stoichiometry N,[5],2
AcrIF24 co-expressed with the Csy complex (natural protein),stoichiometry N (AcrIF24 per Csy complex),[6],1
AcrIF24 Δmiddle domain (domain or fragment),stoichiometry N,[7],2
GAGCGACTACGACATGAGCGCGCAGCTAAGACCGCCCGTAGATGCGTCGAGCGT (double strand) [dsDNANS 54 bp],Kd,[8],3460 nM
GAGCGACTACGACATGAGCGCGCAGCTAAGACCGCCCGTAGATGCGTCGAGCGT [ssDNANS 54 nt],binding signal (fold weaker than ssDNASP),[9],10
same,binding signal (fold weaker than ssDNASP),[10],10
GCATAGCTCGATCCGAGCTAGTA (double strand) [IR23-24 WT],Kd,[11],49.1 nM
same,Kd,[8],20.2 nM
dsDNANS 54 bp (dsDNA) DNA 1: GAGCGACTACGACATGAGCGCGCAGCTAAGACCGCCCGTAGATGCGTCGAGCGT DNA 2: ACGCTCGACGCATCTACGGGCGGTCTTAGCTGCGCGCTCATGTCGTAGTCGCTC,binding result,Csy complex; label: 5'-FAM or 3'-FAM,no binding
dsDNASP 54 bp (dsDNA) DNA 1: GGAAGCCATCCAGGTAGACGCGGACATCAAGCCCGCCGTGAAGGTGCAGCTGCT DNA 2: AGCAGCTGCACCTTCACGGCGGGCTTGATGTCCGCGTCTACCTGGATGGCTTCC,binding result,"Csy complex; label: 5'-FAM or 3'-FAM on target strand, unlabelled in some assays",binds
